Experiment [1] concerns tyrosine phosphorylation of FRS2α and downstream activation of MAP kinase cascade. Nature of the experiment: Phosphorylation of FRS2α and 44/42 MAP kinase in CHO Klotho cell line. It counts as cell-based. Here is the method: Subconfluent HEK293-Klotho cells (Kurosu et al., “Regulation of Fibroblast Growth Factor-23 Signaling by Klotho,” J Biol Chem 281(10):6120-6123 (2006), which is hereby incorporated by reference in its entirety) were serum starved for 16 h and then stimulated for 10 min with either FGF23^28-251 (0.33 to 10 nM) or FGF23^180-251 (0.76 to 76.3 nM). In parallel experiments, cells were stimulated with FGF23^28-251 (1 nM) alone or with FGF23^28-251 (1 nM) mixed with increasing concentrations of either FGF23^180-251 (0.76 to 76.3 nM) or FGF23^180-205 (0.1 to 10 μM). Cell stimulation with FGF2 (2.9 nM) alone or FGF2 (2.9 nM) mixed with increasing concentrations of FGF23^180-251 (0.76 to 76.3 nM) served as controls. Similarly, subconfluent cells of a CHO cell line stably expressing Klotho (Imura et al., “Secreted Klotho Protein in Sera and CSF: Implication for Post-translational Cleavage in Release of Klotho Protein from Cell Membrane,” FEBS Lett 565(1-3):143-147 (2004), which is hereby incorporated by reference in its entirety) were treated with either FGF23^28-251 (0.067 to 20 nM) or FGF23^28-200 (0.04 to 12 nM). […]

The next experiment relates to C57BL/6 mice. The experiment is described as follows: Serum phosphate in C57BL/6 mice after IP injection. Particulars: two injections of 5 μg, healthy C57BL/6 mice. Format: in vivo, mouse. Here is the method: The phosphaturic activity of […] was examined in ˜6-week old C57BL/6 mice by a published protocol (Goetz et al., “Molecular Insights into the Klotho-dependent, Endocrine Mode of Action of Fibroblast Growth Factor 19 Subfamily Members,” Mol Cell Biol 27(9):3417-3428 (2007), which is hereby incorporated by reference in its entirety). FGF23^28-251, FGF23^28-200, or vehicle were injected IP into the animals. Each mouse received two injections at 8 h intervals, of 5 μg of protein per injection. Before the first injection and 8 h after the second injection, blood was drawn by cheek-pouch bleeding and spun at 3,000×g for 10 min to obtain serum. Serum phosphate levels were determined using Phosphorus Liqui-UV reagent (Stanbio Laboratory).

Experiment [2] relates to binary FGFR-Klotho complex. Nature of the experiment: Pull-down / co-precipitation of FGF23 proteins with FGFR-Klotho complex. Particulars: HEK293-Klotho cell lysate. Format: binding. Here is the method:
A pull-down assay may also be used to confirm the existence of a protein:protein interaction (i.e. FGF23^180-251 binding to the binary FGFR-Klotho complex). One aspect of the present invention utilizes pull-down assays. These assays involved subconfluent cultures of a HEK293 cell line ectopically expressing the FLAG-tagged membrane-spanning form of murine Klotho, which were harvested and lysed. Cell lysate was incubated with FGF23^28-251, FGF23^28-200, FGF23^28-179, FGF23^180-251, or protein sample buffer, and binary complexes of Klotho and endogenous FGFR were isolated from cell lysate using anti-FLAG M2 agarose beads. […]
In parallel, subconfluent HEK293-Klotho cells (Kurosu et al., “Regulation of Fibroblast Growth Factor-23 Signaling by Klotho,” J Biol Chem 281(10):6120-6123 (2006), which is hereby incorporated by reference in its entirety) were transfected with expression vectors for V5-tagged FGFR1c, FGFR3c, or FGFR4 (Kurosu et al., “Regulation of Fibroblast Growth Factor-23 Signaling by Klotho,” J Biol Chem 281(10):6120-6123 (2006), which is hereby incorporated by reference in its entirety) and binding of FGF23 proteins/peptides to Klotho-FGFR complexes isolated from cell lysate was analyzed. […]

Entries after “also recorded” stand apart in the source; their conditions may differ.

Chain of binary FGFR-Klotho complex (O35082 35-1014, one chain of several): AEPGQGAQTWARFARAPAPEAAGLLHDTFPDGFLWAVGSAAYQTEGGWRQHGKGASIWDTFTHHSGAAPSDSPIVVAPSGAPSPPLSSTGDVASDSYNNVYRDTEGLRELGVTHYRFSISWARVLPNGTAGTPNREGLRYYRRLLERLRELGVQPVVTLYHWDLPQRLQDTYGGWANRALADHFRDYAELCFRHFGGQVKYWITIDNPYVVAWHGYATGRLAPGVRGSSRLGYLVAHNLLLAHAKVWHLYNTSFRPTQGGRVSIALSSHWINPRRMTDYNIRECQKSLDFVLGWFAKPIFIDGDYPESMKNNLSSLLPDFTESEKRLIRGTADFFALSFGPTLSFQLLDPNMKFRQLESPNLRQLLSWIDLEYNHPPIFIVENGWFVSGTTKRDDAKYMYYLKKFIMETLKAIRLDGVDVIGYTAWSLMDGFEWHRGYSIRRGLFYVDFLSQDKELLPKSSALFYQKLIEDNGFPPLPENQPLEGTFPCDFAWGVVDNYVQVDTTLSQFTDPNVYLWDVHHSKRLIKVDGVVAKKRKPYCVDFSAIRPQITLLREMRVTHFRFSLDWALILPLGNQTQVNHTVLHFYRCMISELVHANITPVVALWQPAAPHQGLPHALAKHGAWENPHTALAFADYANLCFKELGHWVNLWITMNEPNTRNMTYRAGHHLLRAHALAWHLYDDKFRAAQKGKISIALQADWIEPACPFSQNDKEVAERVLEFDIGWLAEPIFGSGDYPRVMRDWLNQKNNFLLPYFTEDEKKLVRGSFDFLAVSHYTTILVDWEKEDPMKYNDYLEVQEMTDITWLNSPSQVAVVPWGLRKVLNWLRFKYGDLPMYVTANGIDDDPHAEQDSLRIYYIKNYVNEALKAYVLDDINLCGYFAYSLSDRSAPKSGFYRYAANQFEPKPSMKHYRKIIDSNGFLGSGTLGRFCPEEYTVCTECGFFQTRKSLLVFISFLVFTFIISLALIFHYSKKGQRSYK

B1: FGF23^28-200: C-terminally truncated FGF23 protein (A28 to T200), lacks the last 51 C-terminal amino acids (protein)
chain: ASPLLGSSWGGLIHLYTATARNSYHLQIHKNGHVDGAPHQTIYSALMIRSEDAGFVVITGVMSRRYLCMDFRGNIFGSHYFDPENCRFQHQTLENGYDVYHSPQYHFLVSLGRAKRAFLPGMNPPPYSQFLSRRNEIPLIHFNTPIPRQHTQSAEDDSERDPLNVLKPRARMT
Consider B1, for which the “induction of phosphorylation of FRS2α and activation of MAP kinase cascade” value in experiment [1] is on record as “at a dose comparable to that of FGF23^28-251”. The “reduction of serum phosphate concentration (phosphaturic activity)” value in the experiment with C57BL/6 mice is given as “nearly as effective as the full-length ligand; also recorded: exhibits phosphaturic activity”. In addition, the “co-precipitation with the binary FGFR-Klotho complex” value in experiment [2] is listed as “still retains the ability to co-immunoprecipitate”.
